Assay results taken from patent US20040181828A1 (E I DUPONT DE NEMOURS, published 2004).

Molecular target: T1, ADGal4/rDr1 fusion protein (Gal4 activation domain fused to rice Dr1, encoded by pADGal4::rDr1) (rice)
T1 construct: Expressed in yeast YRG-2 for the two-hybrid assay; Coding region of rice Dr1 (EcoR I/Sma I fragment) fused in frame
T1 chain: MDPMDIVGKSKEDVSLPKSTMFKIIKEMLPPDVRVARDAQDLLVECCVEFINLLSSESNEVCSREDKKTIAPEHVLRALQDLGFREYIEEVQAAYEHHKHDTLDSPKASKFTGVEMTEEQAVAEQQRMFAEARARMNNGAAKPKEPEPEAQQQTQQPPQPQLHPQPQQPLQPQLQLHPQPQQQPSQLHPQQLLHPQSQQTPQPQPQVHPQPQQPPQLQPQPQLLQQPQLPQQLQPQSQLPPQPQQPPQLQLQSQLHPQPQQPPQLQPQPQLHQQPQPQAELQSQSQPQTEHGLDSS
Assay: yeast two-hybrid (Gal4 system, YRG-2), growth on medium lacking Trp, Leu and His
Excerpt: USA 88: 9578-9582). The rice Dr1 and DRAP1 cDNAs described in Example 5 were fused with pAD-Gal4 and pBD-Gal4 to generate pADGal4::rDr1 and pBDGal4::rDRAP1 constructs respectively. The EcoR I and Sma I fragment containing coding region of rice Dr1 was cloned into pAD-Gal4 EcoR I and Sma I sites to generate pADGal4::rDr1. The Mfe I and Pst I fragment containing coding region of rice DRAP1 was cloned into pBD-Gal4 EcoR I and Pst I sites to generate pBDGal4::rDRAP1. The pADGal4::rDr1 and pBDGal4::rDRAP1 were transformed independently and co-transformed into Stratagene's YRG-2 yeast strain (Stratagene, San Diego, Calif.). Competent YRG-2 cells were prepared according to the method of Eible (1992) Biotechniques 13:18-20) and transformed with one microgram of DNA added to a […] aliquot of competent yeast cells. A mixture containing 240 PI 50% PEG (MW 3350), 36 μl 1 M lithium acetate, and 50 μg of salmon sperm DNA was added to the yeast-DNA mixture. After mixing the mixture was incubated at 30° C. for 30 minutes and heat shocked at 42° C. for 20 minutes. Maximum of 200 μl of transformation mixture was plated on selective plates. For initial plating transformants containing the pADGal4::rDr1 construct (trp+), were plated on selection medium lacking tryptophan. […]

B1: Truncated rice DRAP1 (N-terminal deletion of 63 amino acids) fused to Gal4 DNA binding domain, encoded by pBDGal4::rDRAP1NN64 (other, not shown: large carriers)
chain: SFHLKQCVRRYSSFDFLTEVVNKVPDLGGADSCGDDRALPRRRKALPNGSDPENEESRSSKMAVRSANISPRGRGRGRGRGRGRPPTKRKEVGYVQFEDESSMFADQGEALPGEETVPETIHGTESVPPSTHPPAEAPSAAEIPAPNPKVEEAKNDDHQPDWPMPDAIGNIGVGPSGFGHLTVQVDEDEDYDNED
notes: Lacks the N-terminal 63 amino acids of rice DRAP1
**Q.** Does B1 bind?
**A.** no binding
